Results reported in patent US20090269346A1 (RAPTOR PHARMACEUTICAL, published 2009).
Changes are numbered by the printed parent chain.

How the values were obtained:
[1] = molecular target: T1, LRP1 CR3-5 (human); test: solid-phase assay, coated CR protein, anti-RAP, OD450
T1 construct: range 852-973; Amplified from human cDNA; also called L1 CR3-5
Description: (§1) Percent of maximum binding is the ratio of the OD at the highest concentration tested for each ligand and the highest OD measured for all such ligands at that concentration.
(§2) Solid phase binding assays-Purified, refolded CR protein (1 μg) was bound to Nunc Maxisorp™ 96-well plates in TBS pH 8 supplemented with 5 mM CaCl₂ (TBSC) overnight at 4° C. Wells were washed with TBSC and then blocked with TBSC containing 2% bovine serum albumin (BSA). RAP ligands were then incubated with the immobilized receptor at a range of concentrations for 2 hours in the above blocking buffer supplemented with 0.05% Tween-20 at room temperature. Control wells contained no added ligand. As an additional control, to determine whether the absence of calcium affected binding, 10 mM EGTA was included in the incubation medium for some samples. Wells were washed with TBSTC and bound ligands detected with polyclonal anti-RAP (BP41/42, 1:1,000, BioMarin). Excess primary antibody was removed and wells washed before incubation with the secondary antibody, HRP-conjugated goat anti rabbit IgG (Bio-Rad). After washing, TMB substrate solutions (Bio-Rad) were added to detect HRP. Color development was stopped with 1N HCl. Absorption at 450 nm was measured with a microplate spectrophotometer (Molecular Devices). Data were plotted and Kd values derived by non-linear regression with the assumption of single-site binding (GraphPad Prism).
(§3) Next, binding of RAP d3 and RAPv2A d3 proteins to LRP1 CR3-5 and LRP2 CR89 was assessed. In order to understand the relative contributions of each RAPv2A d3 mutation to differences in affinity, we also prepared a number of RAPv2A d3 revertants and RAP d3 forward mutants, all comprising sequence variants intermediate between RAPv2A d3 and wild-type RAP d3 (FIGS. 7A and B, Table 1). Samples were tested in triplicate and experiments were repeated at least once. Values from different experiments were combined and a single mean and standard deviation obtained for each concentration of ligand tested.

[2] = molecular target: T2, LRP2 CR89 (human, UniProt P98164 1025-1102); test: as above
T2 construct: domain: CR8 and CR9; also called YVWR; L2 CR89; not shown: N-terminal hexahistidine and S-peptide from pET30(+)a
T2 sequence (P98164 1025-1102): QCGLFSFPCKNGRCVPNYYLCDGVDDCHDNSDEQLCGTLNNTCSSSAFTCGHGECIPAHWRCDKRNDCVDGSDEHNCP
Description: as §1, §2, §3

[3] = molecular target: T1, LRP1 CR3-5; test: solid-phase assay, coated CR protein, anti-RAP, OD450; apparent Kd repeated from Table 1; unit inferred, nM taken from paragraph 284
[4] = molecular target: T3, LRP2 CR89 V1047D R1088D (human, UniProt P98164 1022-1105); test: solid-phase assay, coated CR protein, anti-RAP, OD450
T3 construct: also called YDWD
T3 chain: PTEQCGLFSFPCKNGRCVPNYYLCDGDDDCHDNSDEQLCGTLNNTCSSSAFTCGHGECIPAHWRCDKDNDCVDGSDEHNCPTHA
Description: as §2
(§4) One premise of this work was that amino acids at A, C, A′ and C′ within the calcium-binding loops of a CR pair were key determinants of binding affinity for RAP and would be similarly important for binding of RAP variants. To test this idea, we prepared mutants of LRP2 CR89 in which the native, non-canonical residues at these positions were sequentially substituted with the non-native, canonical residues. As defined above, the A, C, A′, C′ string for LRP2 CR89 is YVWR. Mutants included LRP2 CR89 Y1042W (WVWR), LRP2 CR89 V1047D (YDWR), LRP2 CR89 R1088D (YVWD), LRP2 CR89 V1047D R1088D (YDWD), LRP2 CR89 Y1042W V1047D R1088D (WDWD), LRP2 CR89 Y1042W V1047D (WDWR), LRP2 CR89 Y1042W R1088D (WVWD). Binding to both RAP d3 and RAPv2A d3 were measured for each LRP2 CR89 mutant by solid-phase assay. Samples were tested in triplicate. OD values from uncoated wells, receptor-coated wells incubated with buffer alone, and uncoated wells incubated with the highest ligand concentration all gave similar values for all conditions tested.

[5] = molecular target: T4, LRP2 CR89 V1047D (human, UniProt P98164 1022-1105); test: as above
T4 construct: also called YDWR
T4 chain: T3 chain with D68R
Description: as §2, §4

[6] = molecular target: T2, LRP2 CR89; test: as above; remark: listed apart in the source
Description: as §2, §4

[7] = molecular target: T5, LRP2 CR89 Y1042W R1088D (human, UniProt P98164 1022-1105); test: as above
T5 construct: also called WVWD
T5 chain: T3 chain with Y22W, D27V
Description: as §2, §4

[8] = molecular target: T6, LRP2 CR89 R1088D (human, UniProt P98164 1022-1105); test: as above
T6 construct: also called YVWD
Description: as §2, §4

[9] = molecular target: T7, LRP2 CR89 Y1042W (human, UniProt P98164 1022-1105); test: as above
T7 construct: also called WVWR
T7 chain: T3 chain with Y22W, D27V, D68R
Description: as §2, §4

[10] = molecular target: T8, LRP2 CR89 Y1042W V1047D R1088D (human, UniProt P98164 1022-1105); test: as above
T8 construct: also called WDWD
T8 chain: T3 chain with Y22W
Description: as §2, §4

T1 sequence (Q07954 852-973): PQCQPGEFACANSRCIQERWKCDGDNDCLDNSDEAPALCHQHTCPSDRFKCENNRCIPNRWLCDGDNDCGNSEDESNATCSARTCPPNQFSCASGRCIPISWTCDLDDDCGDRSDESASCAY

- % max (percent of maximum binding) [1]: 76%
- Kd [1]: 16 nM
- % max (percent of maximum binding) [2]: 5%
- Kd [3]: 16 nM
- % max bind [4]: 6%
- % max bind [5]: 6%
- % max bind [6]: 7%
- % max bind [7]: 16%
- % max bind [8]: 7%
- % max bind [9]: 9%
- % max bind [10]: 15%
B1: wild-type RAP d3 (ligand)
chain: LDRLRRVSHQGYSTEAEFEEPRVIDLWDLEQSANLTDKELEAFREELKHFEAKIEKHNHYQKQLEIAHEKLRHAESVGDGERVSRSREKHALLEGRTKELGYTVKKHLQDLSGRISRAR
notes: expressed in E. coli from pET30(+)a; not shown: vector-encoded N-terminal tags of pET30(+)a (hexahistidine and S-peptide, as stated for the CR constructs)
